In patent US20170204174A1 (published 2017):
Each block holds one molecule with its values, some of them ahead of it.

Legend:
[1] = molecular target: recombinant mature human GDF-15 protein (SEQ ID No: 8) (human) (UniProt Q99988); assay: Surface Acoustic Wave (SAW) gold chip biosensor
[2] = molecular target: T1, recombinant mature human GDF-15 protein (SEQ ID No: 8) (human, UniProt Q99988 197-308); assay: Surface Acoustic Wave (SAW) gold chip biosensor
T1 construct: also called recombinant human GDF-15; recombinant GDF-15
T1 sequence: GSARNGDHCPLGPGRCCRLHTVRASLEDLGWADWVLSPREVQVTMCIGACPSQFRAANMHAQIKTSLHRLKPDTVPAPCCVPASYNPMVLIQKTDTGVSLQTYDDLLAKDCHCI

[3] = molecular target: T1, recombinant mature human GDF-15 protein …; assay: Surface Acoustic Wave (SAW) gold chip biosensor; antibody as serum-free CHO culture supernatant
[4] = molecular target: T2, recombinant mature human GDF-15 protein derived from expression in E. coli (human, UniProt Q99988 195-308); assay: SPR (ProteOn XPR36), E. coli GDF-15 immobilised, antibody as analyte
T2 construct: mature; also called GDF-15 derived from E. coli expression
T2 sequence (looked up): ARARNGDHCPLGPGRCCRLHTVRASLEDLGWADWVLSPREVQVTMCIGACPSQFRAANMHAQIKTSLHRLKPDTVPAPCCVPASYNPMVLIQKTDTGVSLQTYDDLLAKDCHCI
Source text: (§1) For preparing the biosensors recombinant mature human GDF-15 protein was immobilized on flow cells 1 and 2. On one flow cell recombinant GDF-15 derived from Baculvirus-transfected insect cells (HighFive insect cells) and on the other recombinant protein derived from expression in E. coli was used. The GLC sensor chip was activated using Sulfo-NHS (N-Hydroxysulfosuccinimide) and EDC (1-Ethyl-3-[3-dimethylaminopropyl]carbodiimide hydrochloride) (Bio-Rae ProteOn™ Amine Coupling Kit) according to the manufacturer's recommendation, the sensor surface was subsequently loaded with the proteins up to a density of about 600 RU (1 Ru=1 pg mm⁻²). The non-reacted coupling groups were then quenched by perfusion with 1M ethanolamine pH 8.5 and the biosensor was equilibrated by perfusing the chip with running buffer ([…], 150 mM NaCl, 3.4 mM EDTA, 0.005% Tween®20, pH 7.4, referred to as HBS150). As controls two flow cells were used, one empty with no protein coupled and one coupled with an non-physiological protein partner (human Interleukin-5), which was immobilized using the same coupling chemistry and the same coupling density. […] The resulting sensogram was analyzed using the software ProteOn Manager version 3.0. […]

[5] = molecular target: T1, recombinant mature human GDF-15 protein …; assay: SPR (ProteOn XPR36), KD=koff/kon, insect-cell GDF-15 immobilised
Source text: as §1

[6] = molecular target: T1, recombinant mature human GDF-15 protein …; assay: Surface Acoustic Wave (SAW) gold chip biosensor; remark: listed apart in the source
[7] = molecular target: T1, recombinant mature human GDF-15 protein …; assay: SPR (ProteOn XPR36), insect-cell GDF-15 immobilised, antibody as analyte, 1:1 Langmuir, 25° C.
Source text: as §1

human Interleukin-5 = human Interleukin-5 (human, UniProt P05113 20-134); assay: SPR (ProteOn XPR36), IL-5 immobilised, antibody as analyte
Source text: as §1

Sequence of human Interleukin-5 (P05113 20-134 limits assumed): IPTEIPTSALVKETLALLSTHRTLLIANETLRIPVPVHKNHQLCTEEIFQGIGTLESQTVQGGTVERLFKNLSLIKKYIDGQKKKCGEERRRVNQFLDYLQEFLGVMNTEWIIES

B1: H1L5 humanized B1-23 anti-GDF-15 antibody (antibody, human IgG1, V domains shown)
VH: QITLKESGPTLVKPTQTLTLTCTFSGFSLSTSGMGVSWIRQPPGKGLEWLAHIYWDDDKRYNPTLKSRLTITKDPSKNQVVLTMTNMDPVDTATYYCARSSYGAMDYWGQGTLVTVSS
VL: DIVLTQSPSFLSASVGDRVTITCKASQNVGTNVAWFQQKPGKSPKALIYSASYRYSGVPDRFTGSGSGTEFTLTISSLQPEDFAAYFCQQYNNFPYTFGGGTKLEIKR
notes: Human IgG1 (trastuzumab backbone); also called H1L5 anti-GDF-15 antibody; humanized B1-23-H1L5 antibody
- fold higher affinity than the murine B1-23 antibody [2]: ~5 fold
- Kd [3]: 5.62 nM

B2: murine monoclonal anti-human GDF-15 antibody mAb-B1-23 (antibody, V domains shown)
VH: QVKLQQSGPGILQSSQTLSLTCSFSGFSLSTSGMGVSWIRQPSGKGLEWLAHIYWDDDKRYNPTLKSRLTISKDPSRNQVFLKITSVDTADTATYYCARSSYGAMDYWGQGTSVTVSS
VL: DIVLTQSPKFMSTSVGDRVSVTCKASQNVGTNVAWFLQKPGQSPKALIYSASYRYSGVPDRFTGSGSGTDFTLTISNVQSEDLAEYFCQQYNNFPYTFGGGTKLEIKR
notes: also called anti-human GDF-15 mAb-B1-23; B1-23 anti-GDF-15 antibody (murine, IgG2a)
- factor by which the affinity differs from that for insect-cell GDF-15 [4]: < 2 fold
- Kd [5]: ~0.79 nM
- Kd [6]: 28.8 nM
- koff [7]: 0.00043 s⁻¹
- kon [7]: 540000 M⁻¹ s⁻¹
- binding result (human Interleukin-5): no binding (tested: 0.4, 0.8, 3, 12, 49 and 98 nM)

Continued, values first:

- Kd [1]: 1120 nM
Molecule: Rituxumab (control antibody)

- fold higher affinity than the murine B1-23 antibody [2]: ~2 fold
- Kd [6]: 14 nM
B3: chimeric anti-human GDF-15 mAb-B1-23 antibody (antibody, human IgG1, kappa, V domains shown)
VH: QVKLQQSGPGILQSSQTLSLTCSFSGFSLSTSGMGVSWIRQPSGKGLEWLAHIYWDDDKRYNPTLKSRLTISKDPSRNQVFLKITSVDTADTATYYCARSSYGAMDYWGQGTSVTVSS
VL: DIVLTQSPKFMSTSVGDRVSVTCKASQNVGTNVAWFLQKPGQSPKALIYSASYRYSGVPDRFTGSGSGTDFTLTISNVQSEDLAEYFCQQYNNFPYTFGGGTKLEIKR
notes: Murine variable domains, constant domains of a human IgG1 (trastuzumab backbone); also called Chimeric B1-23 anti-GDF-15 antibody; chimeric B1-23
